Test results from patent US20240190946A1 (AUGMENTA BIOWORKS, published 2024).
Substitutions are numbered along the chain they refer to.

Key:
[1] = target: SARS-COV-2 spike (1+2) protein on pseudotyped lentivirus (SARS-COV-2, UniProt P0DTC2 14-1273); assay: cell-based or functional assay
[2] = target: T1, Sino CoV2 S2 (spike protein 2) (SARS-COV-2, UniProt P0DTC2 686-1213); assay: Carterra LSA
T1 construct: domain: S2 (spike protein 2)

[3] = target: T1, Sino CoV2 S2 (spike protein 2); assay: Carterra LSA; Carterra LSA
[4] = target: T2, Sino CoV2 RBD (Receptor Binding Domain) (SARS-COV-2, UniProt P0DTC2 319-541); assay: Carterra LSA; Carterra LSA
[5] = target: T2, Sino CoV2 RBD (Receptor Binding Domain); assay: ForteBio; ForteBio
[6] = target: T3, Sino SARS1 S1 (SARS1, UniProt P59594 14-667); assay: Carterra LSA
T3 construct: domain: S1

[7] = target: T2, Sino CoV2 RBD (Receptor Binding Domain); assay: Carterra LSA
[8] = target: T4, NAC CoV2 S1 (SARS-COV-2, UniProt P0DTC2 14-674); assay: instrument not stated
T4 construct: domain: S1

[9] = target: T2, Sino CoV2 RBD (Receptor Binding Domain); assay: instrument not stated
[10] = target: T1, Sino CoV2 S2 (spike protein 2); assay: ForteBio; ForteBio

B1: SC2 antibody 3387 (antibody, V domains shown)
VH: QVQLVQSGAEVMQVGASVKVSCKASGYTFTSYGISWVRQAPGQGLEWMGWINTYNGNTNYAQKLQGRVTMTTDTSTTTAYMELRSLRSDDTAVYYCARVAVGYCSGGSCYYFDYWGQGTLVTVSS
VL: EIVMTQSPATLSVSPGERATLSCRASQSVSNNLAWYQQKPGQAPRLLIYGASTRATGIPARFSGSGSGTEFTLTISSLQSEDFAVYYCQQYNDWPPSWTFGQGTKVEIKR
In the case of B1, the “neutralization of infection of HEK293 cells by spike-pseudotyped lentivirus” value (“neutralization” for short) [1] is reported as roughly 45%.

B2: SC2 antibody 3947 (antibody, V domains shown)
VH: QLQLQESGSGLVKPSQTLSLTCAVSGGSVSSGGYSWSWIRQPPGKGLEWIGYIYDSGITSYNPSLKSRLTISIDRSKNQFSLGLSSVTAADTAVYYCARVRRNTSGSFSTGHFDYWGQGTLVTVSS
VL: QSVLTQPPSVSASPGQTVTISCSGSTSNIGGNYVSWYQHLPGTAPKLLIYDSNKRPSGIPDRFSGSKSGTSATLGITGLQTEDEADYYCGTWDYRLSGAVFGGGTKLTVL
notes: also called Anti-SARS-COV-2 antibody 3947
B2 showed a Kd [2] of 25 nM.

B3: SC2 antibody 4083 (antibody, V domains shown)
VH: B2 VH
VL: QSVLTQPPSVSAVPGQKVTISCSGNNSNIGNNLVSWYQQLPGTAPKLLIYNNNRRPSGIPDRFSGSKSGTSATLGITGLQTGDEAAYYCAARDSSLSAVVFGGGTKLTVL
notes: also called Anti-SARS-COV-2 antibody 4083
For B3, the Kd [2] was 41 nM.

B4: anti-SARS-COV-2 (SC2) antibody 3417 (antibody, V domains shown)
VH: QVQLQESGPGLLKPSQTLSLTCTVSGVSIRNSNYFWNWIRRPAGKGLEWIGRMHSGGTTNYNPSLKSRVTVSSDAARNQFSLELTSVTAADTAVYYCARDDPLNRFAAFQIWGRGTLVTVSS
VL: QSVLTQPPSVSAAPGQKVTISCSGSSSNIGNKYISWYQQLPGTAPKLLIYDNNKRPSGIPDRFSGSKSGTSATLGITGLQTGDEADYYCGTWDSSLSVFYVFGTGTKVTVLG
notes: also called SC2 Ab 3417
For B4, the Kd [3] was 63 nM, the Kd [4] was 7.2 nM and the “neutralization” value [1] was roughly 70%. For the same binder, the Kd [5] was less than 0.001 nM.

B5: SC2 antibody 3969 (antibody, V domains shown)
VH: QVQLVESGGGVVQPGRSLRLSCAASGFTFSSYGMHWVRQAPGKGLEWVAVISYDGSNKYYADSVKGRFTISRDNSKNTLYLQMNSLRAEDTAVYYCAKGVGDYAVWGQGTLVTVSS
VL: QSALTQPASVSGSPGQSITISCTGTNSDIGGYDYVSWYQQHPGKAPKLMIFDVNNRPSGVSNRFSGSKSGNTASLTISELQSADEADYFCSSFSTRNSLVVFGGGTKLTVL
notes: also called Anti-SARS-COV-2 antibody 3969
For B5, the Kd [6] was 28 nM and the Kd [7] was 105 nM.

B6: SC2 antibody 3388 (antibody, V domains shown)
VH: QVQLVESGGGVVQPGRSLRLSCAASGFTFSSYAMHWVRQAPGKGLEWVAVISYDGSNKYYADSVKGRFTISRDNSKNTLYLQMNSLRAEDTAVYYCAREGNIVATISLDYWGQGTLVTVSS
VL: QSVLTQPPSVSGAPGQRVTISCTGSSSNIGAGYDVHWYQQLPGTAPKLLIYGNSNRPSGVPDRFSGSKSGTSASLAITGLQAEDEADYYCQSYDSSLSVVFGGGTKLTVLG
notes: also called Anti-SARS-COV-2 antibody 3388
For B6, the Kd [3] was 10 nM.

B7: SC2 antibody 3705 (scFv)
scFv: LEIVMTQSPATLSVSPGERATLSCRASQSVSNNLAWYQQKPGQAPRLLIYGASTRATGIPARFSGSGSGTEFTLTISSLQSEDFAVYYCQQYNDWPPSWTFGQGTKVEIKGGGGSGGGGSGGGGSQVQLVQSGAEVMQVGASVKVSCKASGYTFTSYGISWVRQAPGQGLEWMGWINTYNGNTNYAQKLQGRVTMTTDTSTTTAYMELRSLRSDDTAVYYCARVAVGYCSGGSCYYFDYWGQGTLVTVSSGGGGSGGQHHHHHHGAEQKLISEEDLGSGKPIPNPLLGLDSTS
notes: also called Anti-SARS-COV-2 antibody 3705
For B7, the “neutralization” value [1] was 100%, the Kd [8] was 57 nM and the Kd [9] was 1.3 nM.

B8: SC2 antibody 3396 (antibody, V domains shown)
VH: GVQLVESGGGLVQPGRSLRVSCAASGFTFADYAMHWVRQAPGKGLEWVSGISWNSGNIAYADSVKGRFTISRDNAKNSLYLQMDSLRPDDTALYYCVKASTLYYYFYMDVWGKGTTVTVSS
VL: QSALTQPPSASGSPGQSVTISCTGTSSDVGGYDYVSWYQQHPGKAPKFMIYEVSKRPSGVPDRFSGSKSGNTASLTVSGLQAEDEADYYCCSYAGSNNYVFGTGTKVTVLG
notes: also called Anti-SARS-COV-2 antibody 3396
In the case of B8, the “neutralization” value [1] is reported as roughly 50%, the Kd [10] is reported as 122 nM and the Kd [5] is reported as 22 nM.

B9: SC2 antibody 3908 (antibody, V domains shown)
VH: EVQLVESRGGLVQPGGSLRLSCAATGFTLSSFDMHWVRQATGKGLEWVSAIGTAGDTYYPGSVKGRFTISRENAKNSLYLQMNSLRAGDTAVYYCARGTWLRDYNFWSGYNYYFDYWGQGTLVTVSS
VL: B8 VL with D33I, F48L, M49I, C91S, G95D, T103S, K106R
notes: also called Anti-SARS-COV-2 antibody 3908
B9 gave a Kd [10] of 74 nM.
